Reference: patent US8026218
Bridge positions count the residues as written; N and C are the ends. Square brackets hold non-standard residues; d marks the D form. Primed or numbered codes have the meaning given here. Ends that are not written are not given here. * marks the point of attachment. O‑Bzl(CF3)2 = C-terminal bis(trifluoromethyl)benzyl ester; Glc = O-glucosyl on Ser side chain (Ser(OGlu)/Ser(OGlc)); NH(3,5-(CF3)2-benzyl) = FC(F)(F)c1cc(CN*)cc(C(F)(F)F)c1; OBzl(3,5-(CF3)2) = FC(F)(F)c1cc(CO*)cc(C(F)(F)F)c1; Glc″ = glucosyl on the serine side-chain oxygen; O‑Bzl(CF3)2(3) = C-terminal O-Bzl(CF3)2 ester; NH‑Bn(CF3)2 = C-terminal Bn(CF3)2 amide; Dmt = Cc1cc(O)cc(C)c1C[C@H](N)C(=O)O; Met(O) = CS(=O)CC[C@H](N)C(=O)O; dPen = CC(C)(S)[C@@H](N)C(=O)O; Pen = CC(C)(S)[C@H](N)C(=O)O; Nle = CCCC[C@H](N)C(=O)O; Abu = CC[C@H](N)C(=O)O; Aib = CC(C)(N)C(=O)O; GABA = NCCCC(=O)O; βAla = NCCC(=O)O

B1: Tyr-DAla-Gly-Phe-Ala-Trp-O-Bzl(CF3)2 (NP31) (peptide)
peptide: Y[dA]GFAW-{O‑Bzl(CF3)2(3)}
B2: Tyr-D-Ala-Gly-Phe-Trp-O-3′,5′(CF3)2-Bzl (NP36) (peptide)
peptide: Y[dA]GFW-{OBzl(3,5-(CF3)2)}
B3: Tyr-DAla-Gly-Phe-α-Abu-Trp-O-Bzl(CF3)2 (NP33) (peptide)
peptide: Y[dA]GF[Abu]W-{O‑Bzl(CF3)2(3)}
B4: Tyr-DAla-Gly-Phe-Met-Trp-O-Bzl(CF3)2 (NP38) (peptide)
peptide: Y[dA]GFMW-{O‑Bzl(CF3)2}
B5: Tyr-D-Ala-Gly-Trp-O-3′,5′(CF3)2-Bzl (NP44) (peptide)
peptide: Y[dA]GW-{OBzl(3,5-(CF3)2)}
B6: Tyr-DAla-Gly-Phe-γ-Abu-Trp-O-Bzl(CF3)2 (NP34) (peptide)
peptide: Y[dA]GF[GABA]W-{O‑Bzl(CF3)2(3)}
B7: Tyr-DAla-Gly-Phe-Gly-Trp-O-Bzl(CF3)2 (NP30) (peptide)
peptide: Y[dA]GFGW-{O‑Bzl(CF3)2(3)}
B8: Tyr-DAla-Gly-Phe-β-Ala-Trp-O-Bzl(CF3)2 (NP32) (peptide)
peptide: Y[dA]GF[βAla]W-{O‑Bzl(CF3)2(3)}
B9: Tyr-DAla-Gly-Phe-D-Ala-Trp-O-Bzl(CF3)2 (NP40) (peptide)
peptide: Y[dA]GF[dA]W-{O‑Bzl(CF3)2(3)}
B10: Tyr-DAla-Gly-Phe-Pro-Trp-O-Bzl(CF3)2 (NP39) (peptide)
peptide: Y[dA]GFPW-{O‑Bzl(CF3)2}
B11: Tyr[DCysGlyPheNleProDCys]TrpNHBn(CF3)2 (TY038) (peptide)
peptide: Y[dC]GF[Nle]P[dC]W-{NH(3,5-(CF3)2-benzyl)}
modifications: disulfide 2-7
B12: Tyr[DPenGlyPheNleProPen]TrpNHBn(CF3)2 (peptide)
peptide: Y[dPen]GF[Nle]P[Pen]W-{NH(3,5-(CF3)2-benzyl)}
modifications: disulfide 2-7
B13: Tyr[DPenGlyPheNleProDPen]TrpNHBn(CF3)2 (TY048) (peptide)
peptide: Y[dPen]GF[Nle]P[dPen]W-{NH‑Bn(CF3)2}
modifications: disulfide 2-7
B14: Tyr[DPenGlyPheNleProPen]TrpNHBn(CF3)2 (TY047) (peptide)
peptide: Y[dPen]GF[Nle]P[Pen]W-{NH‑Bn(CF3)2}
modifications: disulfide 2-7
B15: Tyr-DAla-Gly-Phe-Leu-Trp-O-Bzl(CF3)2 (NP37) (peptide)
peptide: Y[dA]GFLW-{O‑Bzl(CF3)2}
B16: Tyr-DAla-Gly-Phe-Aib-Trp-O-Bzl(CF3)2 (NP41) (peptide)
peptide: Y[dA]GF[Aib]W-{O‑Bzl(CF3)2(3)}
B17: H-Tyr-D-Ala-Gly-Phe-Met-Pro-Leu-Trp-O-3,5-Bzl(CF3)2 (peptide)
peptide: H-Y[dA]GFMPLW-{OBzl(3,5-(CF3)2)}
modifications: also: TFA salt
B18: Tyr[DCysGlyPheDCys]ProLeuTrpNHBn(CF3)2 (TY037) (peptide)
peptide: Y[dC]GF[dC]PLW-{NH(3,5-(CF3)2-benzyl)}
modifications: disulfide 2-5
B19: TyrDAlaGlyPheMetProLeuTrpOH (TY043) (peptide)
peptide: Y[dA]GFMPLW-OH
B20: DmtDAlaGlyPheNleProSer(OGlu)TrpNHBn(CF3)2 (TY056) (peptide)
peptide: [Dmt][dA]GF[Nle]PS(Glc)W-{NH‑Bn(CF3)2}
B21: TyrDAlaGlyPheSer(OGlu)ProLeuTrpNHBn(CF3)2 (TY042) (peptide)
peptide: Y[dA]GFSPLW-{NH(3,5-(CF3)2-benzyl)}
modifications: not fully specified (residue 5); printed as TyrDAlaGlyPheSer(OGlu)ProLeuTrpNHBn(CF3)2
B22: TyrDAlaGlyPheNleProLeuSer(OGlu)TrpNHBn(CF3)2 (TY055) (peptide)
peptide: Y[dA]GF[Nle]PLS(Glc)W-{NH‑Bn(CF3)2}
B23: Tyr[DCysGlyPheCys]ProLeuTrpNHBn(CF3)2 (TY039) (peptide)
peptide: Y[dC]GFCPLW-{NH(3,5-(CF3)2-benzyl)}
modifications: disulfide 2-5
B24: TyrDAlaGlyPheNleSer(OGlu)LeuTrpNHBn(CF3)2 (TY044) (peptide)
peptide: Y[dA]GF[Nle]S(Glc″)LW-{NH‑Bn(CF3)2}
B25: H-Tyr-D-Ala-Gly-Phe-Nle-Pro-Leu-Trp-O-3,5-Bzl(CF3)2 (peptide)
peptide: YAGFXPLW
modifications: here or on the partner: D-Ala at 2; Nle (norleucine, written X) at 5; C-terminal 3,5-bis(trifluoromethyl)benzyl ester
B26: TyrDAlaGlyPheNleProSer(OGlu)TrpNHBn(CF3)2 (TY041) (peptide)
peptide: Y[dA]GF[Nle]PS(Glc)W-{NH‑Bn(CF3)2}
B27: TyrDAlaGlyPheNleProLeuTrpNHBn(CF3)2 (TY045) (peptide)
peptide: YAGFXPLW
modifications: here or on the partner: D-Ala at 2; Nle at 5 (X); C-terminal NH-Bn(CF3)2 amide
B28: H-Tyr-D-Ala-Gly-Phe-Met(O)-Pro-Leu-Trp-O-3,5-Bzl(CF3)2 (peptide)
peptide: H-Y[dA]GF[Met(O)]PLW-{OBzl(3,5-(CF3)2)}
modifications: also: TFA salt
B29: Tyr[DPenGlyPheNleProDPen]TrpNHBn(CF3)2 (peptide)
peptide: Y[dPen]GF[Nle]P[dPen]W-{NH(3,5-(CF3)2-benzyl)}
modifications: disulfide 2-7

Each binder was assayed against guinea pig NK1 receptor (guinea pig) (UniProt P30547) (assay: cell-based or functional assay).
guinea pig NK1 receptor (guinea pig), sequence (P30547 whole entry): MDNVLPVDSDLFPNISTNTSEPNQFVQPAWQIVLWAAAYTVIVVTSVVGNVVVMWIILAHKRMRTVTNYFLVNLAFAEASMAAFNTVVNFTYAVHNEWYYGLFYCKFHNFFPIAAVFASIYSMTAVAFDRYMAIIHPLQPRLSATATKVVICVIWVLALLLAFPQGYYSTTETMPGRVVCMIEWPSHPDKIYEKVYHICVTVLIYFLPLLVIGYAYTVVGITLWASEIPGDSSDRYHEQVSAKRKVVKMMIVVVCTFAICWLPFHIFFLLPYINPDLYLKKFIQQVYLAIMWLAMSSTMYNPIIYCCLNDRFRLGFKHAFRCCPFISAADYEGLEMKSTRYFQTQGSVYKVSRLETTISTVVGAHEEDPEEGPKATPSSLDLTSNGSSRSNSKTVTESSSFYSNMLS

| Binder | GPI/LMMP SP antagonist Ke [nM] | GPI SP-antagonist Ke [nM] |
| --- | --- | --- |
| B1 | 18.6 | – |
| B2 | – | 38 |
| B3 | 5.6 | – |
| B4 | 2 | – |
| B5 | – | 5 |
| B6 | 0.96 | – |
| B7 | 58.9 | – |
| B8 | 250 | – |
| B9 | 608 | – |
| B10 | 1.8 | – |

The binders below were run against human δ opioid receptor (human) (UniProt P41143) (assay: cell-based or functional assay).
human δ opioid receptor (human), sequence (P41143 whole entry, stated change not applied): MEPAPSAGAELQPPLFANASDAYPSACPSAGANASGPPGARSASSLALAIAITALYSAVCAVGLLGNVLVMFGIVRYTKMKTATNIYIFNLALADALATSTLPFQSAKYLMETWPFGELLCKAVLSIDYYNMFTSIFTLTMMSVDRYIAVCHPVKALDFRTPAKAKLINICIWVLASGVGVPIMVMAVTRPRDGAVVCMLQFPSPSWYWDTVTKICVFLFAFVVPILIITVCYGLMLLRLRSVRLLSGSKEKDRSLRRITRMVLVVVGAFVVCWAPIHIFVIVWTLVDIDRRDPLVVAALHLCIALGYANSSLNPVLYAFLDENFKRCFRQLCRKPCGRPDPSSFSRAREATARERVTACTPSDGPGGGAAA

| Binder | GTP binding hDOR EC50 [µM] | GTP binding hDOR Emax [%] |
| --- | --- | --- |
| B11 | 0.014 | 87 |

Each binder was assayed against rat µ opioid receptor (rat) (UniProt P33535) (assay: cell-based or functional assay).
rat µ opioid receptor (rat), sequence (P33535 whole entry): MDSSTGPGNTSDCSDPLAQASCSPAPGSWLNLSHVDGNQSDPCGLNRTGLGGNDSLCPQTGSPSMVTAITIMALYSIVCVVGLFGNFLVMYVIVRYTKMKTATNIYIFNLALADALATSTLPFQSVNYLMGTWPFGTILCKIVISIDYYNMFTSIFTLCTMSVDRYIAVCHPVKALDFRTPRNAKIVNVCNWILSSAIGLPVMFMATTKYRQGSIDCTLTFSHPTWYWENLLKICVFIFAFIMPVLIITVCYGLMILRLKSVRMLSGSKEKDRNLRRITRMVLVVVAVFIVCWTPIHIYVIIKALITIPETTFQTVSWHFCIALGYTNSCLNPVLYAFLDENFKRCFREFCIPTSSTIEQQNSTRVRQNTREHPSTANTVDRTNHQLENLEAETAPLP

| Binder | GTP binding EC50 [µM] | GTP binding Emax [%] | GTP binding rMOR EC50 [µM] | GTP binding rMOR Emax [%] |
| --- | --- | --- | --- | --- |
| B12 | 2.91 | 15 | – | – |
| B13 | – | – | 0.135 | 29 |
| B14 | – | – | 2.91 | 15 |
| B11 | – | – | 0.0217 | 11 |

What follows are binders tested against µ opioid receptor of the guinea pig isolated ileum (guinea pig) (UniProt P97266) (assay: cell-based or functional assay).
µ opioid receptor of the guinea pig isolated ileum (guinea pig), sequence (P97266 whole entry): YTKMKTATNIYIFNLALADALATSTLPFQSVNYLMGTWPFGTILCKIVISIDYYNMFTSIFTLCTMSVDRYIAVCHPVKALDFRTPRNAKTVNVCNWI

| Binder | GPI/LMMP µ-agonist IC50 [µM] |
| --- | --- |
| B1 | 0.401 |
| B3 | 0.6 |
| B6 | 0.2 |
| B7 | 0.0257 |
| B8 | 0.435 |
| B9 | 0.528 |

Each binder was assayed against δ opioid receptor of the mouse isolated vas deferens (mouse) (UniProt P32300) (assay: cell-based or functional assay).
δ opioid receptor of the mouse isolated vas deferens (mouse), sequence (P32300 whole entry, stated change not applied): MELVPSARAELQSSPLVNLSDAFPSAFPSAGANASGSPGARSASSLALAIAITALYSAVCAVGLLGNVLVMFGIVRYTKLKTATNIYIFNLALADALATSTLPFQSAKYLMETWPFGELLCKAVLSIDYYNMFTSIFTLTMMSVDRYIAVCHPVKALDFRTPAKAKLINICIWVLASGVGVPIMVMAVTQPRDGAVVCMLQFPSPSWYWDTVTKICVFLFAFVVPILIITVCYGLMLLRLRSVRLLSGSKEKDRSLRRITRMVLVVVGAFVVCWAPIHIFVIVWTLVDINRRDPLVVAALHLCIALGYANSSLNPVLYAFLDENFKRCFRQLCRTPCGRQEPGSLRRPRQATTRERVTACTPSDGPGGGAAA

| Binder | MVD δ-agonist IC50 [µM] |
| --- | --- |
| B15 | 0.0257 |
| B1 | 0.0064 |
| B2 | 0.0431 |
| B3 | 0.0124 |
| B4 | 0.00907 |
| B16 | 0.0362 |
| B5 | 0.303 |
| B6 | 0.0679 |
| B7 | 0.0209 |
| B8 | 0.0126 |
| B9 | 0.058 |
| B10 | 0.0846 |

These binders were tested against δ opioid receptor of the mouse isolated vas deferens (mouse), P32300 (assay: cell-based or functional assay).
δ opioid receptor of the mouse isolated vas deferens (mouse), P32300, sequence (P32300 whole entry, stated change not applied): as above

| Binder | MVD (δ) opioid agonist IC50 [µM] | MVD opioid(delta) agonist IC50 [µM] |
| --- | --- | --- |
| B17 | 0.0223 | – |
| B18 | – | 0.00828 |
| B19 | – | 0.00818 |
| B20 | – | 0.00362 |
| B21 | – | 0.109 |
| B22 | – | 0.0174 |
| B23 | – | 0.0731 |
| B11 | – | 0.0189 |
| B24 | – | 0.018 |
| B25 | 0.0168 | – |
| B26 | – | 0.0127 |
| B27 | – | 0.0136 |
| B28 | 0.033 | – |

These binders were tested against rat µ opioid receptor (rat) (UniProt P33535) (assay: competition vs [3H]DAMGO, rMOR cell membranes).

| Binder | Ki [µM] |
| --- | --- |
| B12 | 1.97 |

Each binder was assayed against human δ opioid receptor (human) (UniProt P41143) (assay: competition vs [3H]DPDPE, hDOR cell membranes).

| Binder | Ki [µM] |
| --- | --- |
| B12 | 0.152 |

What follows are binders tested against human NK1 receptor (human) (UniProt P25103) (assay: competition vs [3H]Substance P, hNK1 CHO cell membranes).
human NK1 receptor (human), sequence (P25103 whole entry): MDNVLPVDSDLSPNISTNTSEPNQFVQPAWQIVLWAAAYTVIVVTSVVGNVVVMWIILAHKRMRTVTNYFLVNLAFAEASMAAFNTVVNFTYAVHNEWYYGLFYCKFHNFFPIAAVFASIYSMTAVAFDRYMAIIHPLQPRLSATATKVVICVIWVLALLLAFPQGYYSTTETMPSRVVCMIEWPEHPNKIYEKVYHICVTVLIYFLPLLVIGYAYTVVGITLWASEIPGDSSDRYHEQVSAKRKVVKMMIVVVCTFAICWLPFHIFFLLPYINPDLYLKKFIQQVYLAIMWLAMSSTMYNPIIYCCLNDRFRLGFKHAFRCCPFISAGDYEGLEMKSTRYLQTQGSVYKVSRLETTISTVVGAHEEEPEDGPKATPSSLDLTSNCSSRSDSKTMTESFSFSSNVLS

| Binder | Ki [µM] |
| --- | --- |
| B29 | 0.0019 |
| B12 | 0.059 |

What follows are binders tested against rat NK1 receptor (rat) (UniProt P14600) (assay: competition vs [3H]Substance P, rNK1 CHO cell membranes).
rat NK1 receptor (rat), sequence (P14600 whole entry): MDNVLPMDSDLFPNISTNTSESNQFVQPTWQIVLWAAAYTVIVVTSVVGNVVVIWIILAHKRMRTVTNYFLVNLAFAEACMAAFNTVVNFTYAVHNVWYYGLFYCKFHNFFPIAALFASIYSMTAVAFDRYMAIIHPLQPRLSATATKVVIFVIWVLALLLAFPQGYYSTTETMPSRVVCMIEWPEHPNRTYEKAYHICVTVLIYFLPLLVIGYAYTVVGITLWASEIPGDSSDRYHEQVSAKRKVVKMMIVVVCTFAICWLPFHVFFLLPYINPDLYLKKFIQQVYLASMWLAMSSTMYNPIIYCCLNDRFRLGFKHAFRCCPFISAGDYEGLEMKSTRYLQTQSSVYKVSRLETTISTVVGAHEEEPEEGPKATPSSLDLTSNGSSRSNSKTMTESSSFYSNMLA

| Binder | Ki [µM] |
| --- | --- |
| B29 | 0.026 |
| B12 | 0.163 |

Each binder was assayed against rat µ opioid receptor (rat) (UniProt P33535) (assay: radioligand competition vs [3H]DAMGO, membranes of rMOR cells).

| Binder | Ki [µM] |
| --- | --- |
| B13 | 0.998 |
| B14 | 1.97 |
| B11 | 0.156 |

Each binder was assayed against human δ opioid receptor (human) (UniProt P41143) (assay: radioligand competition vs [3H]DPDPE, membranes of hDOR cells).

| Binder | Ki [µM] |
| --- | --- |
| B14 | 0.152 |
| B11 | 0.0555 |

These binders were tested against human NK1 receptor (human) (UniProt P25103) (assay: radioligand competition vs [3H]substance P, membranes of hNK1 CHO cells).

| Binder | Ki [µM] |
| --- | --- |
| B13 | 0.0019 |
| B14 | 0.059 |
| B11 | 0.00024 |

The binders below were run against rat NK1 receptor (rat) (UniProt P14600) (assay: radioligand competition vs [3H]substance P, membranes of rNK1 CHO cells).

| Binder | Ki [µM] |
| --- | --- |
| B13 | 0.026 |
| B14 | 0.163 |
| B11 | 0.00711 |
